Assay results taken from US6375944B1, “Methods and compositions for enhancing the immunostimulatory effect of interleukin-12” (The Wistar Institute of Anatomy and Biology, priority 1998, dated 2002).
Where two headings read alike, the source gives them in different places.

What was measured:
SCK tumors = assay: Antitumor activity of rmIL-12 against SCK tumors (tumorigenesis scored daily); type: in vivo, A/J mice; conditions: L-NAME given with rmIL-12
Experimental: Female A/J mice were injected with 2.5×10^4 SCK cells and either PBS, rmIL-12, rmIL-12+L-NAME or rmIL-12 and D-NAME on days 0-4 and 7-11. Tumorigenesis was scored daily, as described above.

SCK cells [1] = conditions: cited from earlier work
splenocytes = assay: Mitogen and alloantigen stimulation of splenocytes (3H-thymidine incorporation), whole or adherent/nonadherent cocultures; type: cell-based, mice; conditions: for proliferative responses to Con A, IL-12 and allogeneic stimulation: data not shown
Experimental: The mitogen and alloantigen stimulation of splenocytes assay was performed as follows: In vitro mitogenic stimulation of splenocytes with […] Con A or 100 U/ml rmIL-12 was performed as described [Kurzawa, cited above]. Proliferative responses to allogeneic antigens (mixed lymphocyte reaction, MLR) was measured when splenocytes from the mice were stimulated with 10^5 mitomycin treated A/J splenocytes. Splenocyte fractionation was performed by allowing 10^5 splenocytes to adhere for 90 minutes in 96 well plates, after which the nonadherent cells were removed and cocultured with adherent cells from different wells for assay. When added, antibodies (XMG6 for IFNγ, XT22 for TNFα, AE5 for IL-10 and C17.8 for IL-12 ) were used at […] final concentration. After 72 hours exposure to mitogen, cultures were pulsed with 1 μCi^3H-thymidine for 16 hours, cells were harvested and ^3H incorporation was measured by scintillation counting. Supernatants from cultures assayed for IFNγ by radioimmunoassay (RIA) (using antibodies AN18 and XMG6 [Wysocka, M. et al. 1995 Eur. J. Immunol. 25:672] were harvested 24 or 72 hours after stimulation.
A. Splenocytes from rmIL-12- and PBS-treated C57BL/6 mice were fractioned by adherence to 96 well plastic plates for 90 minutes. The cells were reconstituted in various combinations of adherent and nonadherent cells by overlaying nonadherent cells on the adherent cells. These cocultures were then stimulated with either 2.5 μg/ml Con A, 100 U/ml IL-12, or 10^5 mitomycin C treated A/J (H-2A) splenocytes, as described in the mitogen/alloantigen assay of Example 1.
B. Cocultures were established from splenic adherent and nonadherent cells of PBS-treated mice or from the adherent cells of rmIL-12-treated mice and nonadherent cells of PBS-treated mice. Antibodies XMG6 (to IFNγ), XT22 (to TNFα), AE5 (to IL-10) and C17.8 (to IL-12 ) were added to a final concentration of […] in cocultures containing adherent cells from spleen of rmIL-12-treated mice, also according to the assay described in Example 1.
Cocultures were established from splenic adherent and nonadherent cells of PBS-treated mice or from the adherent cells of rmIL-12-treated mice and nonadherent cells of PBS-treated mice. Antibodies XMG6 (to IFNγ), XT22 (to TNFα), AE5 (to IL-10) and C17.8 (to IL-12) were added to a final concentration of […] in cocultures containing adherent cells from spleen of rmIL-12-treated mice. An inhibitor of inducible nitric oxide synthase (iNOS), L-NMMA (Sigma), was added to cocultures of adherent cells from rmIL-12 treated mice and nonadherent cells from control mice at a final concentration of […]. Alternatively, D-NMMA (Sigma), a noninhibitory isoform of L-NMMA, was added to other cocultures as a control.

[2] = Splenomegaly after a course of rmIL-12; type: in vivo; conditions: iNOS−/− mice, like wild-type mice
SCK cells [3] = assay: Irradiated wild-type SCK cell vaccination followed by SCK tumor cell challenge; type: in vivo, A/J mice; conditions: SCK-vaccinated mice; at 28 days; rmIL-12 alone, or L-NAME/D-NAME given with rmIL-12
Description: Female A/J mice (8 mice per group) were vaccinated with 10^6 irradiated SCK cells and received either PBS, rmIL-12, rmIL-12+L-NAME or rmIL-12 and D-NAME on days 0-4 and 7-11. Mice were challenged fourteen days after vaccination with 2.5×10^4 SCK cells in the opposite flank. Tumorigenesis was scored daily, as described above.

SCK cells [4] = conditions: cited from earlier work; remark: listed apart in the source
SCK cells [5] = assay: SCK.GM cell vaccination followed by SCK tumor cell challenge; type: in vivo, A/J mice; conditions: rmIL-12 250 ng/day ip days 0-4 and 7-11; challenge two weeks after vaccination
Description: A. Female A/J mice were vaccinated with 10^6 irradiated SCK.GM cells suspended in PBS at 10^7 trypan blue-excluding cells/ml. Cells were irradiated with 6000 rads from a ^137Cs source, and mice were vaccinated with 10^6 cells s.c. (day 0). […] Vaccinated and naive A/J mice were challenged fourteen days after vaccination with 2.5×10^4 trypan blue-excluding SCK cells in the opposite flank to assay for the presence of tumor immunity. Tumorigenesis was scored daily.

B1: rmIL-12: recombinant murine Interleukin-12, heterodimeric cytokine, from Genetics Institute (protein, UniProt P43431 23-215; P43432 23-335, looked up)
Interleukin-12 subunit alpha: RVIPVSGPARCLSQSRNLLKTTDDMVKTAREKLKHYSCTAEDIDHEDITRDQTSTLKTCLPLELHKNESCLATRETSSTTRGSCLPPQKTSLMMTLCLGSIYEDLKMYQTEFQAINAALQNHNHQQIILDKGMLVAIDELMQSLNHNGETLRQKPPVGEADPYRVKMKLCILLHAFSTRVVTINRVMGYLSSA
Interleukin-12 subunit beta: MWELEKDVYVVEVDWTPDAPGETVNLTCDTPEEDDITWTSDQRHGVIGSGKTLTITVKEFLDAGQYTCHKGGETLSHSHLLLHKKENGIWSTEILKNFKNKTFLKCEAPNYSGRFTCSWLVQRNMDLKFNIKSSSSSPDSRAVTCGMASLSAEKVTLDQRDYEKYSVSCQEDVTCPTAEETLPIELALEARQQNKYENYSTSFFIRDIIKPDPPKNLQMKPLKNSQVEVSWEYPDSWSTPHSYFSLKFFVRIQRKKEKMKETEEGCNQKGAFLVEKTSTEVQCKGGNVCVQAQDRYYNSSCSKWACVPCRVRS
SCK tumors; 2.5×10^4 SCK cells, treatment days 0-4 and 7-11, 9 days without rmIL-12
  median days to tumor appearance: 14 days
SCK tumors; treatment started on day of SCK cell injection
  delay of tumor appearance vs. untreated mice: about 5 days
SCK cells [1]; challenged 14 days after vaccination
  Effect on protection by irradiated SCK cell vaccination: did not improve protection
SCK cells [1]; challenged at 28 days
  Effect on protection by irradiated SCK cell vaccination: did improve protection
splenocytes; cultures of adherent and nonadherent splenocytes both from rmIL-12 treated mice, vs. PBS-treated
  mitogenic responses: suppressed mitogenic responses
splenocytes; nonadherent cells from control mice mixed with adherent cells from rmIL-12 treated mice
  proliferative responses (Con A, IL-12 or alloantigen): severely impaired
splenocytes; nonadherent cells from rmIL-12 treated mice cocultured with adherent cells from PBS-treated mice
  mitogenic responses: normal mitogenic responses
splenocytes; splenocytes from rmIL-12-treated HKB-vaccinated C57BL/6 mice
  in vitro mitogenic and alloproliferative responses: suppressed
splenocytes; splenocytes from rmIL-12-treated TNFR−/− mice
  proliferative responses to Con A, IL-12 and allogeneic stimulation: suppressed
splenocytes; splenocytes from rmIL-12-treated iNOS−/− mice
  proliferative responses after stimulation with mitogens or alloantigens: proliferative responses like those of splenocytes from control mice
splenocytes; splenocytes from rmIL-12 treated IFNγ−/− mice
  proliferative responses to Con A, IL-12 and allogeneic stimulation: normal proliferative responses
[2]
  splenomegaly: induced splenomegaly
SCK cells [3]
  level of protection: 75%
SCK cells [4]; four weeks after vaccination
  Effect on SCK.GM vaccine protection: had no deleterious effect
SCK cells [4]; two weeks after vaccination
  Effect on SCK.GM vaccine protection: abrogated protection
SCK cells [5]
  Effect on SCK.GM vaccine protection from tumor cell challenge: severely impaired this protection
